According to FireProtDB (doi:10.1110/ps.0205902):

Conditions: Aspergillus oryzae (strain ATCC 42149 / RIB 40), pH 3, 25 °C, Urea, CD, Glycine-HCl 3 mM, reversible: yes, whole UniProt chain shown

B1: Guanyl-specific ribonuclease T1 wild type, P00651 (protein)
chain: MMYSKLLTLTTLLLPTALALPSLVERACDYTCGSNCYSSSDVSTAQAAGYQLHEDGETVGSNSYPHKYNNYEGFDFSVSSPYYEWPILSSGDVYSGGSPGADRVVFNENNQLAGVITHTGASGNNFVECT
With B1 the denaturant m value (Na2SO4 0.01 M) was 1.67 kcal/mol/M, the “denaturant midpoint (higher = more stable)” value (“denaturant midpoint” below) (Na2SO4 0.01 M) was 2.55 M and the unfolding free energy (Na2SO4 0.01 M) was 4.2 kcal/mol. For the same protein, the denaturant m value (Na2SO4 0.20 M) was 1.52 kcal/mol/M, the “denaturant midpoint” value (Na2SO4 0.20 M) was 4.21 M and the unfolding free energy (Na2SO4 0.20 M) was 6.38 kcal/mol. The denaturant m value (Na2SO4 0.50 M) was 1.5 kcal/mol/M, the “denaturant midpoint” value (Na2SO4 0.50 M) was 5.28 M and the unfolding free energy (Na2SO4 0.50 M) was 7.91 kcal/mol. For the same protein, the denaturant m value (Na2SO4 0.80 M) was 1.47 kcal/mol/M, the “denaturant midpoint” value (Na2SO4 0.80 M) was 5.81 M and the unfolding free energy (Na2SO4 0.80 M) was 8.56 kcal/mol. For the same protein, the denaturant m value (NaCl 0.01 M) was 2.29 kcal/mol/M, the “denaturant midpoint” value (NaCl 0.01 M) was 1.43 M and the unfolding free energy (NaCl 0.01 M) was 3.26 kcal/mol. The denaturant m value (NaCl 0.25 M) was 1.85 kcal/mol/M, the “denaturant midpoint” value (NaCl 0.25 M) was 2 M and the unfolding free energy (NaCl 0.25 M) was 3.69 kcal/mol. The denaturant m value (NaCl 0.50 M) was 1.8 kcal/mol/M, the “denaturant midpoint” value (NaCl 0.50 M) was 2.49 M and the unfolding free energy (NaCl 0.50 M) was 4.48 kcal/mol. For the same protein, the denaturant m value (NaCl 0.75 M) was 1.75 kcal/mol/M, the “denaturant midpoint” value (NaCl 0.75 M) was 2.91 M and the unfolding free energy (NaCl 0.75 M) was 5.07 kcal/mol. For the same protein, the denaturant m value (NaCl 1.00 M) was 1.64 kcal/mol/M, the “denaturant midpoint” value (NaCl 1.00 M) was 3.21 M and the unfolding free energy (NaCl 1.00 M) was 5.28 kcal/mol. For the same protein, the denaturant m value (NaSCN 0.01 M) was 2.21 kcal/mol/M, the “denaturant midpoint” value (NaSCN 0.01 M) was 1.44 M and the unfolding free energy (NaSCN 0.01 M) was 3.05 kcal/mol. For the same protein, the denaturant m value (NaSCN 0.05 M) was 1.87 kcal/mol/M, the “denaturant midpoint” value (NaSCN 0.05 M) was 1.55 M and the unfolding free energy (NaSCN 0.05 M) was 2.91 kcal/mol. For the same protein, the denaturant m value (NaSCN 0.25 M) was 1.23 kcal/mol/M, the “denaturant midpoint” value (NaSCN 0.25 M) was 1.5 M and the unfolding free energy (NaSCN 0.25 M) was 1.85 kcal/mol. For the same protein, the denaturant m value (NaSCN 0.50 M) was 1.03 kcal/mol/M, the “denaturant midpoint” value (NaSCN 0.50 M) was 1.38 M and the unfolding free energy (NaSCN 0.50 M) was 1.43 kcal/mol. The denaturant m value (NaSCN 0.75 M) was 1.1 kcal/mol/M, the “denaturant midpoint” value (NaSCN 0.75 M) was 1.04 M and the unfolding free energy (NaSCN 0.75 M) was 1.14 kcal/mol. For the same protein, the denaturant m value was 2.24 kcal/mol/M, the “denaturant midpoint” value was 1.48 M and the unfolding free energy was 3.28 kcal/mol.
